B1: Protein c-Fos (Mus musculus), P01101 (parent)
chain: MMFSGFNADYEASSSRCSSASPAGDSLSYYHSPADSFSSMGSPVNTQDFCADLSVSSANFIPTVTAISTSPDLQWLVQPTLVSSVAPSQTRAPHPYGLPTQSAGAYARAGMVKTVSGGRAQSIGRRGKVEQLSPEEEEKRRIRRERNKMAAAKCRNRRRELTDTLQAETDQLEDEKSALQTEIANLLKEKEKLEFILAAHRPACKIPDDLGFPEEMSVASLDLTGGLPEASTPESEEAFTLPLLNDPEPKPSLEPVKSISNVELKAEPFDDFLFPASSRPSGSETSRSVPDVDLSGSFYAADWEPLHSNSLGMGPMVTELEPLCTPVVTCTPGCTTYTSSFVFTYPEADSFPSCAAAHRKGSSSNEPSSDSLSSPTLLAL

Variants of: B1
Settings: with esr2_mouse Esr2, O08537
esr2_mouse Esr2, O08537, sequence (O08537 whole entry): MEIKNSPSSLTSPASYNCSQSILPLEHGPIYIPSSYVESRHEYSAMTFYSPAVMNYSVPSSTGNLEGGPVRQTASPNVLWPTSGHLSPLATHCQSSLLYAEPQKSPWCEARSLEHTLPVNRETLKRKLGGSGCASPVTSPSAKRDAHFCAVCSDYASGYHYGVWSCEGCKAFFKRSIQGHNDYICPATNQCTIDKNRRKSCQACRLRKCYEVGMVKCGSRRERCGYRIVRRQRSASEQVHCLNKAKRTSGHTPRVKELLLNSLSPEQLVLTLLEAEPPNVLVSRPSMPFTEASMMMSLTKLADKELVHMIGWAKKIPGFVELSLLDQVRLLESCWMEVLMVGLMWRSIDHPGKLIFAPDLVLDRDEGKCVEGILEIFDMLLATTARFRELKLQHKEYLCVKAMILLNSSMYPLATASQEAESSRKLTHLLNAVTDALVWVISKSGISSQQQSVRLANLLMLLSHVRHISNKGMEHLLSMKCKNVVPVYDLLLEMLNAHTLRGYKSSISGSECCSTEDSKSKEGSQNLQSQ

effect of a mutation on the interaction	Variant
increasing interaction	S362E
decreasing interaction	S362A
